167 variants from the RNAGym collection of RNA variant scans (doi:10.7554/elife.80360) can be followed below.

B1: CPEB3 Ribozyme (parent)
chain: GGGGGCCACAGCAGAAGCGUUCACGUCGCGGCCCCUGUCAGAUUCUGGUGAAUCUGCGAAUUCUGCUGU

The data set covers variants of B1. Kind of data set: self-cleavage, relative activity (ratio to wild type); higher = more cleavage; co-transcriptional.
Take U49A G50A: the self-cleavage came out at 0.995.
To U49A G50C belongs 1.02.
Take G48U A59U: the self-cleavage came out at 0.881.
Take G48U A59C: the self-cleavage was 0.739.
For the variant U49G C54U, the self-cleavage is 0.972.
For U49G A59C, the self-cleavage is 0.68.
G48C U67A: the self-cleavage is 1.01.
As to G48C U67G, the self-cleavage worked out at 1.04.
Consider G48C U67C, for which the self-cleavage was determined as 0.998.
For G48U U55C, the self-cleavage stood at 0.977.
As for G48U U55G, the self-cleavage is 0.968.
For the variant U49A U55A, the self-cleavage is 0.968.
The value for G48U C66U was 0.978; that for G48U C66A was 0.923.
As for G48U, the self-cleavage stood at 0.999.
The value for G48U G50U was 0.99; that for G48U G50C was 1.01; that for G48U G50A was 1.03.
To G48U U69G belongs 1.05; to G48U U69C, 1.04.
On to G48U U69A, for which the self-cleavage was found to be 1.01.
G48U G56U: the self-cleavage was determined as 0.994.
For G48U G56A, the self-cleavage was 0.945.
Consider G48U G56C, for which the self-cleavage stood at 0.865.
For the variant U49C G50U, the self-cleavage is 1.03.
The value for U49C G50C was 1.03.
As for G48U U64A, the self-cleavage turned out to be 0.96.
Consider G48U U64C, for which the self-cleavage was 0.876.
Consider G48U U64G, for which the self-cleavage came to 0.955.
On to U49A C57G, for which the self-cleavage turned out to be 0.346.
As to U49A C57A, the self-cleavage was found to be 0.273.
Regarding U49A U62C, the self-cleavage came out at 0.825.
Take U49A U62A: the self-cleavage is 0.99.
For the variant G48U U62C, the self-cleavage is 0.929.
For the variant U49A C63G, the self-cleavage came out at 0.878.
As for U49A C63A, the self-cleavage is 0.943.
As to U49C U53A, the self-cleavage came out at 0.962.
To U49C U53C belongs 0.948; to U49C U53G, 0.859; to U49C C66G, 0.879.
As to U49C C66U, the self-cleavage worked out at 0.973.
Take U49C C57G: the self-cleavage was found to be 0.265.
To U49C C57A belongs 0.216; to U49C C57U, 0.345; to U49G A60G, 0.948.
As for U49G A60U, the self-cleavage worked out at 0.432.
On to U49A U53A, for which the self-cleavage was found to be 0.984.
Regarding U49A U53G, the self-cleavage worked out at 0.95.
In the case of G48U U67G, the self-cleavage came out at 1.05.
For G48U U67C, the self-cleavage is 1.
On to G48U U67A, for which the self-cleavage is 1.01.
To G48U G58U belongs 0.999; to G48U G58A, 0.963; to U49C G65U, 0.79.
In the case of U49C G65A, the self-cleavage stood at 0.89.
Regarding U49C G65C, the self-cleavage amounted to 0.634.
Take G48U U53C: the self-cleavage stood at 1.04.
To G48U U53G belongs 0.94; to U49G A51C, 0.939; to G48C U55A, 1.
For U49G A52C, the self-cleavage worked out at 0.952.
Take U49G A52U: the self-cleavage was 0.986.
On to G48U C54G, for which the self-cleavage was found to be 1.03.
As for U49C U69C, the self-cleavage is 1.04.
The value for U49C U69A was 1.04.
For U49C U69G, the self-cleavage was found to be 1.05.
Consider G48C U64C, for which the self-cleavage amounted to 0.938.
Regarding U49C U67A, the self-cleavage was 0.946.
For U49C U67C, the self-cleavage is 0.986.
Take U49C U67G: the self-cleavage is 0.969.
Take G48C G65U: the self-cleavage is 0.869.
Regarding G48C G65C, the self-cleavage was 0.775.
As to G48C G65A, the self-cleavage came out at 0.926.
For G48C U62G, the self-cleavage was determined as 0.913.
With U49A U61A, the self-cleavage came to 0.979.
The value for U49A U61G was 0.904.
For G48U C57A, the self-cleavage was 0.316.
For U49A G56A, the self-cleavage was determined as 1.
U49A G56U: the self-cleavage is 0.991.
Regarding G48C U61C, the self-cleavage was found to be 0.866.
With G48C U61G, the self-cleavage amounted to 0.907.
The value for U49C G68U was 1.03; that for U49C G68A was 1.01.
In the case of U49C G68C, the self-cleavage stood at 0.998.
Consider G48C C66A, for which the self-cleavage was found to be 0.91.
Consider G48C C66G, for which the self-cleavage is 0.934.
Regarding U49A A52G, the self-cleavage came out at 0.979.
For G48U G65U, the self-cleavage was determined as 0.909.
G48U G65C: the self-cleavage was 0.798.
Regarding G48U G68C, the self-cleavage was 1.05.
G48U G68A: the self-cleavage is 1.04.
As for G48U G68U, the self-cleavage is 1.04.
For U49C U55A, the self-cleavage is 0.936.
Turning to U49C U55C, the self-cleavage came out at 0.795.
In the case of U49A A60U, the self-cleavage was found to be 0.582.
As for U49A A60C, the self-cleavage is 0.394.
For the variant U49A A60G, the self-cleavage worked out at 0.915.
In the case of G48U U49A, the self-cleavage was found to be 1.02.
With G48U U49G, the self-cleavage was 1.01.
With G48U U49C, the self-cleavage was 0.981.
U49C A51U: the self-cleavage turned out to be 0.887.
The value for U49C A51C was 0.981; that for G48C G56C was 0.778; that for G48C G56A was 0.988.
As to U49A G68A, the self-cleavage came to 1.02.
In the case of U49A G68C, the self-cleavage is 0.994.
The value for U49C C54U was 0.965; that for U49C C54G was 0.789.
With G48C G58C, the self-cleavage worked out at 0.974.
To G48C G58A belongs 0.917.
On to U49C U62G, for which the self-cleavage came out at 0.932.
For U49C U62C, the self-cleavage came out at 0.827.
Turning to U49A G65C, the self-cleavage came out at 0.476.
Consider U49A G65A, for which the self-cleavage came out at 0.934.
For U49C G56C, the self-cleavage was found to be 0.778.
With G48C U69C, the self-cleavage amounted to 1.06.
To U49C A52U belongs 0.93.
With U49C A52C, the self-cleavage was 1.03.
The value for U49C A52G was 0.972.
Take U49C U61G: the self-cleavage was determined as 0.829.
For the variant G48U U61C, the self-cleavage was determined as 0.905.
G48U U61A: the self-cleavage is 0.924.
For U49C A60U, the self-cleavage turned out to be 0.535.
Turning to U49C A60C, the self-cleavage is 0.354.
Regarding U49A A51U, the self-cleavage was 1.
Consider G48C U49G, for which the self-cleavage was found to be 1.06.
On to G48C U49A, for which the self-cleavage is 0.976.
On to G48C U49C, for which the self-cleavage was 0.993.
On to G48C G50A, for which the self-cleavage was 1.01.
The value for G48C G50C was 0.944; that for G48C G50U was 1.01.
To U49C G58A belongs 0.911; to U49C G58U, 0.988.
Consider U49C C63G, for which the self-cleavage is 0.832.
U49C C63A: the self-cleavage turned out to be 0.882.
As for U49A A59G, the self-cleavage was 0.995.
With U49A A59U, the self-cleavage was 0.85.
Turning to U49A A59C, the self-cleavage worked out at 0.798.
To U49A U69G belongs 1.06; to U49A G58C, 1.02; to U49A G58U, 0.972.
Turning to G48U A52G, the self-cleavage worked out at 0.983.
Turning to G48U A52U, the self-cleavage is 0.969.
On to G48U A52C, for which the self-cleavage came to 0.987.
Regarding G48C G68A, the self-cleavage is 0.971.
The value for U49A U64C was 0.919.
With U49A U64G, the self-cleavage is 0.835.
G48C U53C: the self-cleavage was found to be 0.96.
G48C U53G: the self-cleavage was 0.913.
Take U49A C66A: the self-cleavage is 0.911.
In the case of U49A C66G, the self-cleavage was found to be 0.96.
Consider G48U A60C, for which the self-cleavage came out at 0.362.
Take G48U A60G: the self-cleavage is 0.979.
The value for U49A C54G was 0.947; that for U49A C54A was 0.641.
For the variant U49A C54U, the self-cleavage worked out at 0.995.
G48U C63A: the self-cleavage was 0.956.
Turning to G48U C63U, the self-cleavage is 1.03.
On to G48U C63G, for which the self-cleavage came out at 0.878.
In the case of U49C U64C, the self-cleavage came out at 0.907.
Turning to G48U A51C, the self-cleavage came to 0.978.
With G48U A51G, the self-cleavage was 0.959.
The value for G48U A51U was 1; that for U49C A59C was 0.764.
Take U49C A59U: the self-cleavage amounted to 0.811.
On to U49C A59G, for which the self-cleavage was 0.985.
Regarding U49A U67A, the self-cleavage worked out at 1.05.
